Test system: Escherichia coli TOP10
Experiment: shrunken log2 fold change of peptide-encoding DNA abundance (4.5 h post-induction vs induction); higher = less antimicrobial activity (less host growth inhibition)
Conditions: time post-induction: 4.5 h; library: site-saturation at positions 5, 18, 19, 20
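Also: peptides expressed intracellularly from a pBAD plasmid library in pooled LB shake-flask culture, induced with 0.3% L-arabinose, DNA abundance read by NGS, three biological replicates, DESeq2 with apeglm shrinkage.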

| Sequence | shrunken log2 fold change |
| --- | --- |
| RRIRYRPPRLPRPRPRPMFVPRP | -0.228 |
| RRIRYRPPRLPRPRPRPMFYPRP | -1.04 |
| RRIRYRPPRLPRPRPRPMGAPRP | -0.207 |
| RRIRYRPPRLPRPRPRPMGMPRP | -0.188 |
| RRIRYRPPRLPRPRPRPMHAPRP | 0.495 |
| RRIRYRPPRLPRPRPRPMIHPRP | -0.0658 |
| RRIRYRPPRLPRPRPRPMKCPRP | -0.905 |
| RRIRYRPPRLPRPRPRPMLQPRP | -0.229 |
| RRIRYRPPRLPRPRPRPMMPPRP | -0.0554 |
| RRIRYRPPRLPRPRPRPMPKPRP | -0.0102 |
| RRIRYRPPRLPRPRPRPMRIPRP | 0.0121 |
| RRIRYRPPRLPRPRPRPMRPPRP | 0.512 |
| RRIRYRPPRLPRPRPRPMRQPRP | -0.0148 |
| RRIRYRPPRLPRPRPRPMRYPRP | -0.114 |
| RRIRYRPPRLPRPRPRPMVFPRP | -0.00776 |
| RRIRYRPPRLPRPRPRPMVMPRP | -0.0337 |
| RRIRYRPPRLPRPRPRPMVNPRP | -0.0376 |
| RRIRYRPPRLPRPRPRPMVYPRP | -0.00783 |
| RRIRYRPPRLPRPRPRPMYEPRP | -0.101 |
| RRIRYRPPRLPRPRPRPMYLPRP | -0.0959 |
| RRIRYRPPRLPRPRPRPMYTPRP | -0.597 |
| RRIRYRPPRLPRPRPRPMYWPRP | -0.451 |
| RRIRYRPPRLPRPRPRPNDSPRP | -0.349 |
| RRIRYRPPRLPRPRPRPNENPRP | -0.744 |
| RRIRYRPPRLPRPRPRPNFGPRP | -0.126 |

| Sequence | shrunken log2 fold change |
| --- | --- |
| RRIRYRPPRLPRPRPRPNFTPRP | -0.348 |
| RRIRYRPPRLPRPRPRPNGVPRP | 0.0238 |
| RRIRYRPPRLPRPRPRPNLNPRP | -0.393 |
| RRIRYRPPRLPRPRPRPNMIPRP | -1.34 |
| RRIRYRPPRLPRPRPRPNMRPRP | 0.117 |
| RRIRYRPPRLPRPRPRPNNAPRP | -1.1 |
| RRIRYRPPRLPRPRPRPNPFPRP | -0.0444 |
| RRIRYRPPRLPRPRPRPNPYPRP | -0.0428 |
| RRIRYRPPRLPRPRPRPNQPPRP | -0.0705 |
| RRIRYRPPRLPRPRPRPNQRPRP | -0.181 |
| RRIRYRPPRLPRPRPRPNRDPRP | -0.0959 |
| RRIRYRPPRLPRPRPRPNRNPRP | -1 |
| RRIRYRPPRLPRPRPRPNSDPRP | -0.233 |
| RRIRYRPPRLPRPRPRPNSWPRP | -0.0916 |
| RRIRYRPPRLPRPRPRPNTAPRP | -0.0149 |
| RRIRYRPPRLPRPRPRPNVMPRP | 0.0307 |
| RRIRYRPPRLPRPRPRPNVNPRP | -1.2 |
| RRIRYRPPRLPRPRPRPNVYPRP | -1.2 |
| RRIRYRPPRLPRPRPRPNYAPRP | -0.223 |
| RRIRYRPPRLPRPRPRPPAIPRP | -0.319 |
| RRIRYRPPRLPRPRPRPPAKPRP | 0.441 |
| RRIRYRPPRLPRPRPRPPAPPRP | 0.76 |
| RRIRYRPPRLPRPRPRPPCIPRP | -0.583 |
| RRIRYRPPRLPRPRPRPPCKPRP | 0.0994 |
| RRIRYRPPRLPRPRPRPPCTPRP | -0.33 |

| Sequence | shrunken log2 fold change |
| --- | --- |
| RRIRYRPPRLPRPRPRPPDWPRP | 0.299 |
| RRIRYRPPRLPRPRPRPPFSPRP | -0.285 |
| RRIRYRPPRLPRPRPRPPFVPRP | -0.304 |
| RRIRYRPPRLPRPRPRPPGYPRP | 1.43 |
| RRIRYRPPRLPRPRPRPPIEPRP | -0.154 |
| RRIRYRPPRLPRPRPRPPKAPRP | -0.0334 |
| RRIRYRPPRLPRPRPRPPKIPRP | 0.152 |
| RRIRYRPPRLPRPRPRPPLMPRP | -0.293 |
| RRIRYRPPRLPRPRPRPPMGPRP | -0.239 |
| RRIRYRPPRLPRPRPRPPNNPRP | -0.708 |
| RRIRYRPPRLPRPRPRPPNTPRP | -0.686 |
| RRIRYRPPRLPRPRPRPPPSPRP | 0.936 |
| RRIRYRPPRLPRPRPRPPPWPRP | 0.358 |
| RRIRYRPPRLPRPRPRPPPYPRP | -0.0871 |
| RRIRYRPPRLPRPRPRPPQGPRP | -0.0838 |
| RRIRYRPPRLPRPRPRPPSCPRP | -0.00175 |
| RRIRYRPPRLPRPRPRPPTYPRP | -0.615 |
| RRIRYRPPRLPRPRPRPPVKPRP | -0.102 |
| RRIRYRPPRLPRPRPRPPVTPRP | -0.0969 |
| RRIRYRPPRLPRPRPRPPVYPRP | -0.406 |
| RRIRYRPPRLPRPRPRPPWDPRP | 0.128 |
| RRIRYRPPRLPRPRPRPPYWPRP | -0.22 |
| RRIRYRPPRLPRPRPRPQAFPRP | -0.142 |
| RRIRYRPPRLPRPRPRPQDDPRP | -0.0017 |
| RRIRYRPPRLPRPRPRPQDIPRP | -0.252 |

| Sequence | shrunken log2 fold change |
| --- | --- |
| RRIRYRPPRLPRPRPRPQDNPRP | -0.024 |
| RRIRYRPPRLPRPRPRPQHHPRP | -0.55 |
| RRIRYRPPRLPRPRPRPQHPPRP | -0.595 |
| RRIRYRPPRLPRPRPRPQKAPRP | -0.0304 |
| RRIRYRPPRLPRPRPRPQKHPRP | -0.777 |
| RRIRYRPPRLPRPRPRPQLCPRP | -0.0902 |
| RRIRYRPPRLPRPRPRPQLQPRP | -0.137 |
| RRIRYRPPRLPRPRPRPQLRPRP | -0.193 |
| RRIRYRPPRLPRPRPRPQMRPRP | -0.00174 |
| RRIRYRPPRLPRPRPRPQNPPRP | -0.483 |
| RRIRYRPPRLPRPRPRPQNRPRP | -0.0755 |
| RRIRYRPPRLPRPRPRPQQDPRP | -0.0899 |
| RRIRYRPPRLPRPRPRPQQLPRP | -0.181 |
| RRIRYRPPRLPRPRPRPQQMPRP | -0.232 |
| RRIRYRPPRLPRPRPRPQQWPRP | 0.155 |
| RRIRYRPPRLPRPRPRPQRMPRP | -0.74 |
| RRIRYRPPRLPRPRPRPQSKPRP | -0.607 |
| RRIRYRPPRLPRPRPRPQTTPRP | -0.0405 |
| RRIRYRPPRLPRPRPRPQWNPRP | -0.108 |
| RRIRYRPPRLPRPRPRPQWWPRP | 0.0898 |
| RRIRYRPPRLPRPRPRPRAFPRP | -0.677 |
| RRIRYRPPRLPRPRPRPRCMPRP | -0.425 |
| RRIRYRPPRLPRPRPRPRCYPRP | 0.0145 |
| RRIRYRPPRLPRPRPRPRDIPRP | -0.0839 |
| RRIRYRPPRLPRPRPRPRDTPRP | -0.378 |

| Sequence | shrunken log2 fold change |
| --- | --- |
| RRIRYRPPRLPRPRPRPRFAPRP | -0.152 |
| RRIRYRPPRLPRPRPRPRFVPRP | -1.02 |
| RRIRYRPPRLPRPRPRPRGMPRP | -0.019 |
| RRIRYRPPRLPRPRPRPRGQPRP | 0.0255 |
| RRIRYRPPRLPRPRPRPRIRPRP | 0.0291 |
| RRIRYRPPRLPRPRPRPRIVPRP | -0.369 |
| RRIRYRPPRLPRPRPRPRKRPRP | 0.266 |
| RRIRYRPPRLPRPRPRPRKTPRP | -0.00513 |
| RRIRYRPPRLPRPRPRPRMKPRP | -0.241 |
| RRIRYRPPRLPRPRPRPRMVPRP | -0.475 |
| RRIRYRPPRLPRPRPRPRNKPRP | -0.661 |
| RRIRYRPPRLPRPRPRPRPFPRP | -0.104 |
| RRIRYRPPRLPRPRPRPRPIPRP | -0.0521 |
| RRIRYRPPRLPRPRPRPRPTPRP | 0.363 |
| RRIRYRPPRLPRPRPRPRQVPRP | -0.206 |
| RRIRYRPPRLPRPRPRPRRPPRP | -0.0739 |
| RRIRYRPPRLPRPRPRPRRRPRP | -0.0051 |
| RRIRYRPPRLPRPRPRPRSEPRP | 0.0596 |
| RRIRYRPPRLPRPRPRPRSWPRP | -0.0913 |
| RRIRYRPPRLPRPRPRPRTAPRP | -0.0512 |
| RRIRYRPPRLPRPRPRPRTMPRP | -1.72 |
| RRIRYRPPRLPRPRPRPRWGPRP | 0.12 |
| RRIRYRPPRLPRPRPRPRWVPRP | -0.0064 |
| RRIRYRPPRLPRPRPRPRYFPRP | -0.212 |
| RRIRYRPPRLPRPRPRPSAKPRP | -0.117 |

| Sequence | shrunken log2 fold change |
| --- | --- |
| RRIRYRPPRLPRPRPRPSCLPRP | -0.56 |
| RRIRYRPPRLPRPRPRPSCNPRP | -1.43 |
| RRIRYRPPRLPRPRPRPSDAPRP | -0.386 |
| RRIRYRPPRLPRPRPRPSDHPRP | -0.42 |
| RRIRYRPPRLPRPRPRPSEEPRP | -0.111 |
| RRIRYRPPRLPRPRPRPSERPRP | -0.417 |
| RRIRYRPPRLPRPRPRPSESPRP | -0.0299 |
| RRIRYRPPRLPRPRPRPSEVPRP | -0.177 |
| RRIRYRPPRLPRPRPRPSGIPRP | -0.119 |
| RRIRYRPPRLPRPRPRPSGRPRP | -0.261 |
| RRIRYRPPRLPRPRPRPSILPRP | -1.25 |
| RRIRYRPPRLPRPRPRPSIMPRP | -1.54 |
| RRIRYRPPRLPRPRPRPSKAPRP | -0.223 |
| RRIRYRPPRLPRPRPRPSKDPRP | -0.642 |
| RRIRYRPPRLPRPRPRPSKMPRP | -0.365 |
| RRIRYRPPRLPRPRPRPSLDPRP | -1.07 |
| RRIRYRPPRLPRPRPRPSLLPRP | -0.727 |
| RRIRYRPPRLPRPRPRPSMFPRP | -1.02 |
| RRIRYRPPRLPRPRPRPSPGPRP | -0.726 |
| RRIRYRPPRLPRPRPRPSPMPRP | -0.486 |
| RRIRYRPPRLPRPRPRPSQEPRP | -0.748 |
| RRIRYRPPRLPRPRPRPSRKPRP | 0.0647 |
| RRIRYRPPRLPRPRPRPSSNPRP | -0.634 |
| RRIRYRPPRLPRPRPRPSTKPRP | -0.225 |
| RRIRYRPPRLPRPRPRPSTQPRP | -0.641 |

From the supplement of paper PMC9112550, “Optimization of the antimicrobial peptide Bac7 by deep mutational scanning” (BMC Biology, 2022)
